From US20110033883A1, “IMAGING DYES AND USE THEREOF” (priority 2007, published 2011) come the findings set out here.

A short description of data set [1]: pH titration, ground-state pKa (UV/vis absorption, Henderson-Hasselbalch fit). Format: physicochemical. The settings on record: absorption at 350 nm vs pH, modified Henderson-Hasselbalch fit. How it is done:
^1H NMR spectra were recorded on a Bruker Advance series 400 MHz NMR spectrometer. The NMR titration experiments were performed following a previously published protocol (Charbonnier and Penades). Mass spectra were acquired using a positive ion mode on a Bruker LC/MS Esquire. Electronic absorption spectra were measured on a Shimadzu 3500 UV-VIS/NIR spectrophotometer. Cyclic voltammetry was carried out using a CH Instruments CH602 electrochemical workstation. A conventional three-electrode cell was used, employing glassy carbon as working, Ag/AgCl as reference or Ag/AgNO3 in acetonitrile, and Pt wire as counter electrodes. Electrochemistry was conducted in water and acetonitrile respectively with 0.1 M phosphate buffer or tetrabutylammonium tetrafluoroborate (TBABF4) as supporting electrolyte under an N2 atmosphere. pH titrations were performed in the pH range 0.5-12. The pH was adjusted by adding aqueous solutions of NaOH or HClO4.
The pH was adjusted with H2SO4 (Sigma-Aldrich) and KOH (Sigma-Aldrich) and measured with a pH meter. UV/vis absorption spectra during the pH titration experiment were corrected for change in volume.
UV/vis absorption titration curves were fitted with a modified Henderson-Hasselbalch equation which was obtained using Beer-Lambert's law to express the concentration, FIG. 2(b) For fitting the fluorescence titration curve it was assumed that the average lifetime goes linear with the ratio of the two species in equilibrium at the certain pH.
At a shorter wavelength the ππ* transitions centred at the ligands are found: around 350 nm the ππ* transition at the pic ligand, and around 280 nm at the bipyridine ligands. […] The increasing absorption with increasing pH at 350 nm is plotted in FIG. 13B. Fitting this curve with a modified Henderson-Hasselbalch equation results in a pKa1 of 1.72±0.07 and pKa2 of 8.16±0.03. As expected the pH dependence of the other bands is rather minor.

Data set [2] has as its system mouse SP2/0 myeloma cells. Put plainly: Resonance Raman mapping of myeloma cells. Format: cell-based. The settings on record: myeloma cell incubated for 15 min. How it is done: Resonance Raman spectroscopy was performed on a Horiba Jobin Yvon HR800UV confocal microscope using an Argon ion Laser (458 nm or 514 nm) or a Helium-Neon (HeNe) laser (633 nm) as the exciting wavelength. Ten spectral acquisitions were accumulated and each acquisition was two seconds in length. Steady-state emission spectra were recorded on a Cary Eclipse Fluorescence spectrophotometer, and luminescence lifetimes were obtained using a Picoquant Fluotime 100 TCSPC system exciting at 470 nm and detecting at 600 nm using a narrow band pass dielectric filter. Quantum yields were measured using the comparative method described by Williams et al. In quenching studies, the luminophore/quencher concentrations were corrected for dilution.
For the fluorescence and fluorescence lifetime experiments 100 μl aliquots were used and incubated with the 3 μl of the Ru-octopeptide (1.2 mM), resulting in a final dye concentration of 3.5×10^−5 M. If only resonance Raman experiments were performed, the cells were incubated in the medium with dye for 15 minutes prior to the washing step.
The resonance Raman maps of the stained myeloma cells were analyzed using the modelling option implemented in the LabSpec software. A model with 4 components was creating, grouping together similar spectra in one component (background, where there is no dye/no cell, outer cell (membrane), cytoplasm and nucleus). […]

Ahx = NCCCCCC(=O)O

In data set [1], “[Ru(bpy)2(PicH-R8)]^n+: ruthenium centre with two bipyridine ligands and one picH ligand; octaarginine coupled to pic carboxy end via Ahx spacer, amide linkage ({(Ru(bpy)2(picH))-Ahx}-RRRRRRRR-NH2; also: Ru(bpy)2 picH ruthenium complex attached via Ahx spacer)” returned a pKa1 of 1.72±0.07 and a pKa2 of 8.16±0.03. Moreover, the “distribution of the dye inside the cell (Raman map, band at 1487 cm^−1)” value in data set [2] is “distributed throughout the cytoplasm, with less dye in the nucleus”.
